Laboratory results from article PMC12531337.

Target: T1, ZEB2 ZnF8 peptide (UniProt O60315 1055-1076)
T1 chain: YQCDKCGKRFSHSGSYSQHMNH
Assay: NMR

B1: ZnF-binding DNA (E2 box) (dsDNA)
DNA 1: GTAATCTGGGCCACCTGCCTGGGAGGA
DNA 2: TCCTCCCAGGCAGGTGGCCCAGATTAC
- binding result: binds
